Among the data in a protein production outcome set (Wang et al. 2014) are protein production values, retold here.

The data set is described as follows: label from the status in PepcDB records.
“MKRWQMEWLLVSVALVWGANYTIGKYGVAYMSSIQFNSLRFLVASPVLLLITFLMERSLRIDRKDWLRLVAVGIVGTTMYQTMFMLSVKYTSATNASLLIAMSPIFTGILAVLHKQERFSMKVQIGSIVAFIGAAFVLLTGHTGGTTYEYAWLGNIIGLVAAIAWGWYPILAQPLITKYSAMRVTSWSTLIGIVPLVVYCLFNVNTLTWPVDMPSWGSLAYSIVFATIFGLAMWYVGISKIGSTKVMVYMYLVPLFAVIFAAVTIGEQINMMQLVGGLIIFIGLYVVKKGGIQKPALNLKKVS”: the protein production entry is reported as “failed”. As for “MKRYRTLLFDVDDTILDFQAAEALALRLLFEDQNIPLTNDMKAQYKTINQGLWRAFEEGKMTRDEVVNTRFSALLKEYGYEADGALLEQKYRRFLEEGHQLIDGAFDLISNLQQQFDLYIVTNGVSHTQYKRLRDSGLFPFFKDIFVSEDTGFQKPMKEYFNYVFERIPQFSAEHTLIIGDSLTADIKGGQLAGLDTCWMNPDMKPNVPEIIPTYEIRKLEELYHILN”, the protein production entry was “not failed”. To “MKSGERSAVADRAQQIMSAARELLDAEGPDALSMRRIAERVGIRAPSLYKHFADKAALVAGLQAQGLTLLAEVQEAAEAEIGADPPLLVLGYAYRRHALASPHLYRITHGWPLARTALPEGLEDRAALPLARAVHGDINIARSFWAFAHGMVVLELDGRFPPGADLDVAWRTGCEAFTQAIRNRPHGSTA” belongs “not failed”. To “MKSIVIYESVHHGNTEKVAKAMVEELNAECIRAQDLNLEKLKDYDLIGFGSGIFYNKFHKNILKLVGNIGKVNGKKAVVFSTSGQGRESSNKSLRKQLEEKGFKVIGSFACKGFDTFGPLKLLGGIGKGRPDQKDIEEAKKFVLGLEKNLLEHHHHHH” belongs “failed”; to “MKSLATDMTEGNVSKHLIKFAIPLILGNLFQLTYNASDSIIVGRFVGKNALAAVGIANPIMNIVMFFIVGICLGASVLMSEYYGAGNVKKLRREISTTVIAGFIFTVLIIIICVIFTEPILGLVKTPKEIIPEAAIYLRIIFISLIFTFFYNIYAAALRSIGDSKNPLLFLMISAVLNVVMDIVFVVWLKMGVAGSAIATSVAEMMSCVFCIVYVHFKIPILKFSFKDMVIDKGLLRSTVNYSWATAMQQTCLYVGKFMVQGAVNPLGVNSIAAFNAVNRVDDFAFAPEQSISNAMTTFLAQNRGANKYKRIKKGFLTGMKLETLYWCILVGIVYLGSTAIMKLFVSGSEVKVISIGSYYLKLMAFFYLLPSWTNGVQGYFRGMGDMKITLRSTFSQIVGRVAFSYILAPRIGMVGIAFSCLGGWIVMLAYEVPCLIKYRRNFNNKLSESSI”, “failed”. For the sequence “MKSNDLVDQIMAQVIAKVSEHAPASSAQPSHAQPSYKQRDTAMAEKTCSLTEFVGTAIGDTVGLVIANVDSALLDAMKLEKRYRSIGILGARTGAGPHIMAADEAVKATNTEVVSIELPRDTKGGAGHGSLIIFGGDDVSDVKRAVEVALKELDRTFGDVYANEAGHIELQYSARASHALEKAFGTPLGRSCGVIVGAPASIGVLMADTAVKSANVDVVAYSSPAQGTSFSNEVILVISGDSGAVRQAVISAREIGKTVLATLGAEPKNDRPSYI”, the protein production entry is “failed”. “MKSNRLIKRLDWYIIKKFLGTYVFAIALIISIAVVFDFNEKMDKLMEHEAPWDKIIFEYYMNFIPYFSNLFSPLFVFIAVIFFTSKLAENSEIIAMFSTGMSFKRMMRPYMISAAIIAAATFMMSSFIIPKGSVTRLNFEDKYIKPKKVNSVRNVQLEVDSGVIAYIDNYNDGMKTGNRFSLDKFVDKKLVSHLTARRITYDTTTVNKWTIHDYMVRELDGLKEKITKGDRIDSIINMDPSDFLIMKNQQEMLTSPELSEYIEKQKRRGFANIKEFEIEYHKRIAMSFASFILTIIGVSLSSRKTKGGMGLHLGIGLGLSFSYILFQTITSTFAINGNVPPAIAVWIPNILYAGIAFYLYQKAPK”: the protein production entry is on record as “failed”.

Take “MKSSNIGGQAVMEGIMMRHKDKYAIAVRRPDKEIELKVEDYKCTFGKAAFLKWPIIRGVVSFVDGLVVGTKCLMYSAEIAGDEEDEKEAAKNATLTEEELSAKKAKEAKQFQ”: the protein production result is “not failed”.
